Sequences and labels used below:
B1: hu1803-1 (antibody, human IgG4 S228P, kappa, F234A L235A, V domains shown)
VH: EVQLVQSGAEVKKPGASVKVSCKASGYTFTDYWIEWVRQAPGQGLEWMGEILPGSTYTNYNEKFKGRVTMTRDTSTSTVYMELSSLRSEDTAVYYCARGLSTLMAVDYFDYWGQGTTVTVSS
VL: DIQMTQSPSSLSASVGDRVTITCRASQDISNYLNWYQQKPGKAPKLLIYYSSTLHSGVPSRFSGSGSGTDFTLTISSLQPEDFATYYCQQTNIFPWTFGGGTKVEIKR
B2: hu1803-2 (antibody, human IgG4 S228P, kappa, F234A L235A, V domains shown)
VH: EVQLVQSGAEVKKPGASVKVSCKASGYTFTDYWIEWVRQAPGQGLEWMGEILPGSTYTNYNEKFKGRVTFTADTSTSTAYMELSSLRSEDTAVYYCARGLSTLMAVDYFDYWGQGTTVTVSS
VL: DIQMTQSPSSLSASVGDRVTITCRASQDISNYLNWYQQKPGKAPKLLIYYSSTLHSGVPSRFSGSGSGTDFTLTISSLQPEDFATYYCQQTNIFPWTFGGGTKVEIKR
B3: hu1810-6 (antibody, human IgG4 S228P, kappa, F234A L235A, V domains shown)
VH: QVQLVQSGAEVKKPGSSVKVSCKASGGTFSNYAISWVRQAPGQGLEWMGEIYPTSGNTYYNEKFKGRVTITADRSTSTMYMELSSLRSEDTAVYYCASGVITTVVSTDYFDYWGQGTLVTVSS
VL: DIQMTQSPSSLSASVGDRVTITCRASLDISNYLNWYQQKPGKAVKLLIYYTSTLHSGVSSRFSGSGSGTDYTLTISSLQPEDFATYYCQQGNMVPYTFGGGTKVEIKR
B4: hu1803-12 (antibody, human IgG4 S228P, kappa, F234A L235A, V domains shown)
VH: EVQLVQSGAEVKKPGASVKVSCKASGYTFTDYWIEWVKQAPGQGLEWIGEILPGSTYTNYNEKFKGRATFTADPSTSTAYMELSSLRSEDTAVYYCSRGLSTLMAVDYFDYWGQGTTVTVSS
VL: DIQMTQSPSSLSASVGDRVTITCRASQDISNYLNWYQQKPGKAVKLLIYYSSTLHSGVPSRFSGSGSGTDYTLTISSLQPEDFATYYCQQTNIFPWTFGGGTKVEIKR
B5: hu1803-3 (antibody, human IgG4 S228P, kappa, F234A L235A, V domains shown)
VH: EVQLVQSGAEVKKPGASVKVSCKASGYTFTDYWIEWVRQAPGQGLEWIGEILPGSTYTNYNEKFKGRATFTADTSTSTAYMELSSLRSEDTAVYYCSRGLSTLMAVDYFDYWGQGTTVTVSS
VL: DIQMTQSPSSLSASVGDRVTITCRASQDISNYLNWYQQKPGKAPKLLIYYSSTLHSGVPSRFSGSGSGTDFTLTISSLQPEDFATYYCQQTNIFPWTFGGGTKVEIKR
B6: hu1810-4 (antibody, human IgG4 S228P, kappa, F234A L235A, V domains shown)
VH: QVQLVQSGAEVKKPGSSVKVSCKASGGTFSNYAISWVKQAPGQGLEWIGEIYPTSGNTYYNEKFKGKATLTADRSTSTMYMELSSLRSEDTAVYYCASGVITTVVSTDYFDYWGQGTLVTVSS
VL: DIQMTQSPSSLSASVGDRVTITCRASLDISNYLNWYQQKPGKAPKLLIYYTSTLHSGVPSRFSGSGSGTDFTLTISSLQPEDFATYYCQQGNMVPYTFGGGTKVEIKR
B7: hu1810-7 (antibody, human IgG4 S228P, kappa, F234A L235A, V domains shown)
VH: QVQLVQSGAEVKKPGSSVKVSCKASGGTFSNYAISWVRQAPGQGLEWIGEIYPTSGNTYYNEKFKGRATLTADRSTSTMYMELSSLRSEDTAVYYCASGVITTVVSTDYFDYWGQGTLVTVSS
VL: DIQMTQSPSSLSASVGDRVTITCRASLDISNYLNWYQQKPGKAVKLLIYYTSTLHSGVSSRFSGSGSGTDYTLTISSLQPEDFATYYCQQGNMVPYTFGGGTKVEIKR
B8: hu1803-8 (antibody, human IgG4 S228P, kappa, F234A L235A, V domains shown)
VH: EVQLVQSGAEVKKPGASVKVSCKASGYTFTDYWIEWVKQAPGQGLEWIGEILPGSTYTNYNEKFKGRATFTADPSTSTAYMELSSLRSEDTAVYYCSRGLSTLMAVDYFDYWGQGTTVTVSS
VL: DIQMTQSPSSLSASVGDRVTITCRASQDISNYLNWYQQKPGGAVKLLIYYSSTLHSGVPSRFSGSGSGTDYTLTISSLQPEDFATYFCQQTNIFPWTFGGGTKVEIKR
B9: hu1803-6 (antibody, human IgG4 S228P, kappa, F234A L235A, V domains shown)
VH: EVQLVQSGAEVKKPGASVKVSCKASGYTFTDYWIEWVRQAPGQGLEWMGEILPGSTYTNYNEKFKGRVTFTADTSTSTAYMELSSLRSEDTAVYYCARGLSTLMAVDYFDYWGQGTTVTVSS
VL: DIQMTQSPSSLSASVGDRVTITCRASQDISNYLNWYQQKPGGAVKLLIYYSSTLHSGVPSRFSGSGSGTDYTLTISSLQPEDFATYFCQQTNIFPWTFGGGTKVEIKR
B10: hu1810-1 (antibody, human IgG4 S228P, kappa, F234A L235A, V domains shown)
VH: QVQLVQSGAEVKKPGSSVKVSCKASGGTFSNYAISWVRQAPGQGLEWMGEIYPTSGNTYYNEKFKGRVTITADKSTSTAYMELSSLRSEDTAVYYCARGVITTVVSTDYFDYWGQGTLVTVSS
VL: DIQMTQSPSSLSASVGDRVTITCRASLDISNYLNWYQQKPGKAPKLLIYYTSTLHSGVPSRFSGSGSGTDFTLTISSLQPEDFATYYCQQGNMVPYTFGGGTKVEIKR
B11: hu1810-3 (antibody, human IgG4 S228P, kappa, F234A L235A, V domains shown)
VH: QVQLVQSGAEVKKPGSSVKVSCKASGGTFSNYAISWVRQAPGQGLEWIGEIYPTSGNTYYNEKFKGRATLTADRSTSTMYMELSSLRSEDTAVYYCASGVITTVVSTDYFDYWGQGTLVTVSS
VL: DIQMTQSPSSLSASVGDRVTITCRASLDISNYLNWYQQKPGKAPKLLIYYTSTLHSGVPSRFSGSGSGTDFTLTISSLQPEDFATYYCQQGNMVPYTFGGGTKVEIKR
B12: hu1803-5 (antibody, human IgG4 S228P, kappa, F234A L235A, V domains shown)
VH: EVQLVQSGAEVKKPGASVKVSCKASGYTFTDYWIEWVRQAPGQGLEWMGEILPGSTYTNYNEKFKGRVTMTRDTSTSTVYMELSSLRSEDTAVYYCARGLSTLMAVDYFDYWGQGTTVTVSS
VL: DIQMTQSPSSLSASVGDRVTITCRASQDISNYLNWYQQKPGGAVKLLIYYSSTLHSGVPSRFSGSGSGTDYTLTISSLQPEDFATYFCQQTNIFPWTFGGGTKVEIKR
B13: hu1810-5 (antibody, human IgG4 S228P, kappa, F234A L235A, V domains shown)
VH: QVQLVQSGAEVKKPGSSVKVSCKASGGTFSNYAISWVRQAPGQGLEWMGEIYPTSGNTYYNEKFKGRVTITADKSTSTAYMELSSLRSEDTAVYYCARGVITTVVSTDYFDYWGQGTLVTVSS
VL: DIQMTQSPSSLSASVGDRVTITCRASLDISNYLNWYQQKPGKAVKLLIYYTSTLHSGVSSRFSGSGSGTDYTLTISSLQPEDFATYYCQQGNMVPYTFGGGTKVEIKR
B14: hu1810-2 (antibody, human IgG4 S228P, kappa, F234A L235A, V domains shown)
VH: QVQLVQSGAEVKKPGSSVKVSCKASGGTFSNYAISWVRQAPGQGLEWMGEIYPTSGNTYYNEKFKGRVTITADRSTSTMYMELSSLRSEDTAVYYCASGVITTVVSTDYFDYWGQGTLVTVSS
VL: DIQMTQSPSSLSASVGDRVTITCRASLDISNYLNWYQQKPGKAPKLLIYYTSTLHSGVPSRFSGSGSGTDFTLTISSLQPEDFATYYCQQGNMVPYTFGGGTKVEIKR
B15: hu1803-10 (antibody, human IgG4 S228P, kappa, F234A L235A, V domains shown)
VH: EVQLVQSGAEVKKPGASVKVSCKASGYTFTDYWIEWVRQAPGQGLEWMGEILPGSTYTNYNEKFKGRVTFTADTSTSTAYMELSSLRSEDTAVYYCARGLSTLMAVDYFDYWGQGTTVTVSS
VL: DIQMTQSPSSLSASVGDRVTITCRASQDISNYLNWYQQKPGKAVKLLIYYSSTLHSGVPSRFSGSGSGTDYTLTISSLQPEDFATYYCQQTNIFPWTFGGGTKVEIKR
B16: hu1810-8 (antibody, human IgG4 S228P, kappa, F234A L235A, V domains shown)
VH: QVQLVQSGAEVKKPGSSVKVSCKASGGTFSNYAISWVKQAPGQGLEWIGEIYPTSGNTYYNEKFKGKATLTADRSTSTMYMELSSLRSEDTAVYYCASGVITTVVSTDYFDYWGQGTLVTVSS
VL: DIQMTQSPSSLSASVGDRVTITCRASLDISNYLNWYQQKPGKAVKLLIYYTSTLHSGVSSRFSGSGSGTDYTLTISSLQPEDFATYYCQQGNMVPYTFGGGTKVEIKR
B17: hu1803-7 (antibody, human IgG4 S228P, kappa, F234A L235A, V domains shown)
VH: EVQLVQSGAEVKKPGASVKVSCKASGYTFTDYWIEWVRQAPGQGLEWIGEILPGSTYTNYNEKFKGRATFTADTSTSTAYMELSSLRSEDTAVYYCSRGLSTLMAVDYFDYWGQGTTVTVSS
VL: DIQMTQSPSSLSASVGDRVTITCRASQDISNYLNWYQQKPGGAVKLLIYYSSTLHSGVPSRFSGSGSGTDYTLTISSLQPEDFATYFCQQTNIFPWTFGGGTKVEIKR
B18: hu1803-4 (antibody, human IgG4 S228P, kappa, F234A L235A, V domains shown)
VH: EVQLVQSGAEVKKPGASVKVSCKASGYTFTDYWIEWVKQAPGQGLEWIGEILPGSTYTNYNEKFKGRATFTADPSTSTAYMELSSLRSEDTAVYYCSRGLSTLMAVDYFDYWGQGTTVTVSS
VL: DIQMTQSPSSLSASVGDRVTITCRASQDISNYLNWYQQKPGKAPKLLIYYSSTLHSGVPSRFSGSGSGTDFTLTISSLQPEDFATYYCQQTNIFPWTFGGGTKVEIKR
B19: hu1803-11 (antibody, human IgG4 S228P, kappa, F234A L235A, V domains shown)
VH: EVQLVQSGAEVKKPGASVKVSCKASGYTFTDYWIEWVRQAPGQGLEWIGEILPGSTYTNYNEKFKGRATFTADTSTSTAYMELSSLRSEDTAVYYCSRGLSTLMAVDYFDYWGQGTTVTVSS
VL: DIQMTQSPSSLSASVGDRVTITCRASQDISNYLNWYQQKPGKAVKLLIYYSSTLHSGVPSRFSGSGSGTDYTLTISSLQPEDFATYYCQQTNIFPWTFGGGTKVEIKR
B20: hu1810-9 (antibody, human IgG4 S228P, kappa, F234A L235A, V domains shown)
VH: QVQLVQSGAEVKKPGSSVKVSCKASGGTFSNYAISWVRQAPGQGLEWMGEIYPTSGNTYYNEKFKGRVTITADKSTSTAYMELSSLRSEDTAVYYCARGVITTVVSTDYFDYWGQGTLVTVSS
VL: DIQMTQSPSSLSASVGDRVTITCRASLDISNYLNWYQLKPGKAVKLLIYYTSTLHSGVSSRFSGSGSGTEYTLTISSLQPEDFATYYCQQGNMVPYTFGGGTKVEIKR

Experimental findings from patent US20220153853A1 (JIANGSU HENGRUI MEDICINE, published 2022) are described below.

One may read the IC50 as the concentration at which inhibition is half-maximal.

The target in the assay is human GCGR (full-length glucagon receptor of 477 amino acids) (human, UniProt P47871 26-477). Nature of the assay: cell-based or functional assay.
Chain of human GCGR (full-length glucagon receptor of 477 amino acids) (P47871 26-477 limits assumed): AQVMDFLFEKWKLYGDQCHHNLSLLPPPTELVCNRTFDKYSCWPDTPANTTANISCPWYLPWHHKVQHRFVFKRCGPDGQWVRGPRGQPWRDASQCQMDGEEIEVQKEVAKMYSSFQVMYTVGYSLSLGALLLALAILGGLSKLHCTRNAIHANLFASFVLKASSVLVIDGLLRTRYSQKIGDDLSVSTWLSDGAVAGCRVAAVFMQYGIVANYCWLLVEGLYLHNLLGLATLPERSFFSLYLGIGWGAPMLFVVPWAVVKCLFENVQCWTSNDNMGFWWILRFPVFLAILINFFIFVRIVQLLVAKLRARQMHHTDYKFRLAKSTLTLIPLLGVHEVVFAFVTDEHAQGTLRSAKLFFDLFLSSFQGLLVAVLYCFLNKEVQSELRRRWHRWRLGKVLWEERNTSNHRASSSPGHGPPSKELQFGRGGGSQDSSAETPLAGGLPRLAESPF
Consider B1, for which the half-maximal inhibitory concentration (IC50) was 191 nM and the Imax stood at 91.8%.

Turning to B2, the “IC50” value came to 137 nM and the Imax is 98.5%.

As to B3, inhibition was half-maximal at 157 nM (IC50) and the Imax is 100%.

Turning to B4, the “IC50” value turned out to be 86.9 nM and the Imax came out at 100%.

As for B5, the half-inhibitory concentration (IC50) worked out at 110 nM and the Imax came to 96.7%.

Take B6: the half-maximal inhibitory concentration (IC50) came to 138 nM and the Imax stood at 99.1%.

Consider B7, for which the “IC50” value was found to be 119 nM and the Imax amounted to 100%.

In the case of B8, the “IC50” value was determined as 85.9 nM and the Imax stood at 100%.

In the case of B9, 77.5 nM corresponded to half-maximal inhibition (IC50) and the Imax is 100%.

For the molecule B10, the 50% inhibitory concentration (IC50) was found to be 189 nM and the Imax is 83.2%.

For the molecule B11, half-maximal inhibition (IC50) required 192 nM and the Imax is 95.4%.

Regarding B12, it took 79 nM to reach half-maximal inhibition (IC50) and the Imax was 100%.

As for B13, the “IC50” value turned out to be 216 nM and the Imax came out at 86.4%.

As for B14, inhibition was half-maximal at 106 nM (IC50) and the Imax is 100%.

Consider B15, for which the “IC50” value worked out at 76.7 nM and the Imax was determined as 100%.

On to B16, for which the half-inhibitory concentration (IC50) worked out at 133 nM and the Imax was determined as 100%.

With B17, the “IC50” value came out at 73 nM and the Imax is 100%.

As for B18, the 50% inhibitory concentration (IC50) was found to be 140 nM and the Imax amounted to 100%.

Take B19: the “IC50” value worked out at 88.7 nM and the Imax came out at 100%.

In the case of B20, 125 nM corresponded to half-maximal inhibition (IC50) and the Imax turned out to be 90.4%.
